Reference: patent US20240218054A1 (MABLOC, published 2024)
Positions count from the first letter of the chain named.

T1: recombinant YFV-17D DIII protein (Yellow fever virus, strain 17D, UniProt P03314 578-682)
T1 construct: also called domain III
T1 sequence: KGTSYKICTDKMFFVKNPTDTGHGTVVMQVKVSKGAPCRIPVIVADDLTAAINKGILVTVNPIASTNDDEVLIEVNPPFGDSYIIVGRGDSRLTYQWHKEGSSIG

B1: ADI-49590 (antibody, V domains shown)
VH: QVQLVQSGAEVKKPGASVKVSCKASGYTFTGYYMHWVRQAPGQGLEWMGRINPNSGGTNYAQKFQGRVTMTRDTSISTAYMELSRLRSDDTAVYYCYVDYYYDSSGYYSPFDYWGQGTLVTVSS
VL: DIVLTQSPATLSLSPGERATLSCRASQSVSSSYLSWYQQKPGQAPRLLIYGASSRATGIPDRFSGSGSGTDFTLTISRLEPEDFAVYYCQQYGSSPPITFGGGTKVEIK
notes: full-length IgG; also called Antibody Number 96
B2: ADI-45113 (antibody, V domains shown)
VH: QVQLVQSGGGLVQPGGSLRLSCAASGFTFSSYAMSWVRQAPGKGLEWVSAISGSGGSTYYADSVKGRFTISRDNSKNTLHLQMSSLRAEDTAVYYCAKDPKYSSGWWAFDYWGQGTLVTVSS
VL: EIVMTQSPATLSVSPGERATLSCRASQSVSSNLAWYQQKPGQAPRLLIYGASTRATGIPARFSGSGSGTEFTLTISSLQSEDFALYYCQQYDDWPLFGQGTRLEIK
notes: full-length IgG; also called Antibody Number 20
B3: ADI-48968 (antibody, V domains shown)
VH: EVQLLESGGGLGQPGGSLRLSCVASKFTFSDHYMDWVRQAPGKGLEWVGRIRNKPNGYTTEYAASVKGRFIISRDDSKNSLYLQMKSLKIEDTAIYYCVRVWGGEAARYDYWGQGALVTVSS
VL: DIRLTQSPSSLSASVGDRVTITCRASQDIRKFLNWYQQKLGKAPSLLIYGASSLQSGVPSRFSGSGSGTDFTLTISSLQPEDFAIYYCQHASTTPWTFGQGTKVEIK
notes: full-length IgG; also called Antibody Number 98
B4: ADI-45083 (antibody, V domains shown)
VH: QVQLVESGPGLVKPSGTLSLTCAVSGGSISSDYWWSWVRQPPGKGLEYIGEIYHTGSTNYNPSLKSRVTVSLDRSKNVFSLTLRSVTAADTAVYYCARSHWRSPQSVTFDLWGQGTTVTVSS
VL: QPVLTQPPSVSAAPGQKVTISCSGSNSNIGNYYVSWYQQFPGTAPKLLIYDNNKRPSGIPDRFSGSKSGTSATLAITGLQTGDEAHYYCGTWDTSSLSAGRVFGGGTKLTVL
notes: full-length IgG; also called Antibody Number 9
B5: ADI-49147 (antibody, V domains shown)
VH: QVQLQESGGDLVQPGGSLRLSCAASGFTFSNYAMNWVRQAPGKGLEWVSAINRGGDSTYYADSVKGRFTISRDNSKNTLYLQMNSLRAEDTAVYYCAKDHGGKYGWWYFDLWGRGTLVTVSS
VL: DIRVTQSPATLSVSPGERATLSCRASQSVSSNLAWYQQKPGQAPRLLIYDASNRATGIPVRFSGSGSGTDFTLTISSLQSEDFAVYYCQQYDNWPLTFGGGTKVEIK
notes: full-length IgG; also called Antibody Number 2
B6: ADI-45075 (antibody, V domains shown)
VH: EVQLLESGGGLVQPGGSLRLSCAASGFTFSSYAMSWVRQAPGKGLEWVSVISDSGGSTYYADSVKGRFTISRDNSKNTLYLQMNSLRAEDTAVYYCAKDLRGVGGWYYFDYWGQGTLVTVSS
VL: EIVLTQSPSSLSASVGDRVTITCQASQDISNFLNWYQQKPGKAPKLLIYDASSLETGVPSRFSGSGSGTDFTFTISSLQPEDIATYYCQQYDNLPLTFGGGTKLEIK
notes: full-length IgG; also called Antibody Number 45
B7: ADI-42212 (antibody, V domains shown)
VH: EVQLVESGGGLVQPGGSLRLSCAASGFTFSDHYMDWVRQAPGKGLEWVGRSRNKPNSYITEYAASVKGRFTISRDDSKNSLYLQMNSLKTEDTAVYYCSRHMGFGLDLWGQGTLVTVSS
VL: SYELTQPPSVSVSPGQTATITCSGDKLGYTYTCWYQQKPGQSPVLVIYQDTKRPSGIPERFSGSNSGNTATLTITGTQAMDEADYYCQAWDTTTAGGVFGGGTKLTVL
notes: full-length IgG; also called Antibody Number 99
B8: ADI-42223 (antibody, V domains shown)
VH: EVQLVESGGGLVQPGGSLRLSCAASGFTFSDYYMDWVRQAPGKGLEWVGGIRNKPNSYTTEYAASVKGRFTISRDDSKNSLFLQMNSLKTEDTAVYYCVRLYGDYVAYFDYWGQGTLVTVSS
VL: DIQLTQSPSSLSASVGDRVTITCRASQSISQYLNWYQQKPGKAPKLLISPASSFQSGVPSRFSGSGSGTDFTLTITSLQPEDFATYYCQQSYSTPWTFGQGTKVDIK
notes: full-length IgG; also called Antibody Number 84
B9: ADI-42213 (antibody, V domains shown)
VH: EVQLLESGGGLVQPGGSLRLSCAASGFTFTYYAMSWVRQAPGKGLEWVSGISGSGDSTYNADSVKGRVTISRDNSKNTLYLQMNSLRAEDTAVYYCAKDGGYSTDWYFDLWGRGTLVTVSS
VL: EIVLTQSPGTLSLSPGERATLSCRASQSVSSSFLAWYQQKPGQAPRLLIYGASSRATGIPDRFSGSGSGTDFTLTIRRLEPEDFAVYYCQQYGSSRRTFGQGTKVEIK
notes: full-length IgG; also called Antibody Number 90
B10: ADI-45161 (antibody, V domains shown)
VH: QVQLQESGGGVVQPGRSLRLSCAASGFTFSSYGMHWVRQAPGKGLEWVAVIWYDGSNKYYADSVKGRFTISRDNSKNTLYLQMNSLRAEDTAVYYCARDVGYQLLQVYGMDVWGQGTTVTVSS
VL: QSALTQPASVSGSPGQSITISCTGTSSDVGGYNYVSWYQQHPGKAPKLMIYEVSNRPSGVSNRFSGSKSGNTASLTISGLQAEDEADYYCSSYTSSSTLDVVFGGGTKLTVL
notes: full-length IgG; also called Antibody Number 92
B11: ADI-45090 (antibody, V domains shown)
VH: EVQLVESGGGLVQPGRPLRLSCAASGFAFSSYGMHWVRQAPGKGLEWVALIRFDGTIKYYADSVKGRFTISRDNAKNTLYLQMSSLRAEDTAVYYCARDLEVGAEYLYYHYGMDVWGQGTTVTVSS
VL: QPVLTQPPSASGTPGQRVTIFCSGSRSNIGTYTINWYQKLPGTAPKLLIYSNNRGPSGVPDRFSGSQSGTSASLAISGLQPEDEADYYCAAWDDSLNGWVFGGGTKVTVL
notes: full-length IgG; also called Antibody Number 4
B12: ADI-48435 (antibody, V domains shown)
VH: QVQLVQSGAEVKKPGASVKVSCKASGYTFTSYGISWVRQAPGQGLEWMGWISAYNGNTNYAQKLQGRVTMTTDTSTSTAYMELRSLRSDDTAVYYCARRGTTVTRFGVIQYYYGMDVWGQGTTVTVSS
VL: QSVLTQPASVSGSPGQSITISCTGTSSDVGGYNYVSWYQQHPGKAPKLMIYDVSNRPSGVSNRFSGSKSGNTASLTISGLQAEDEADYYCSSYTSSSTLVFGGGTQLTVL
notes: full-length IgG; also called Antibody Number 85
B13: ADI-42192 (antibody, V domains shown)
VH: EVQLLESGPGLVKPSQTLSLTCSVSGGSISSGGYYWTWIRQPPGKGLEWIGYIYYTGSTYYNPSLKSRVTISVDTSKNQFSLKLSSVTAADTAVYFCARAEYDTSGYYQQRLPEYFQHWGQGTLVTVSS
VL: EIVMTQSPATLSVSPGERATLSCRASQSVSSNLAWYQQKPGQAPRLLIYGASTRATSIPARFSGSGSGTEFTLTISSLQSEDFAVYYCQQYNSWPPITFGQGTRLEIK
notes: full-length IgG; also called Antibody Number 93
B14: ADI-46742 (antibody, V domains shown)
VH: QVQLQESGPGLVKPSETLSLTCTVSGASIRSYLWSWIRQPPGKELEWLGSIYHSGSTKYNPSLKSRVTISADTSKNQFSLKLNSVTAADTAVFYCARETANNWFDPWGQGTLVTVSS
VL: SYELTQPPSVSVAPGQTARIICGGNYIGGKSVHWYQQKPGQAPVLVVYNDNDRPSGIPERFSGSNSGNTATLTISRVAAGDEADYYCQVWDNSSDRRVFGGGTKLTVL
notes: full-length IgG; also called Antibody Number 86
B15: ADI-42787 (antibody, V domains shown)
VH: EVQLVESGGGVVQSGRSLRLSCAASGFTFSGNAMHWVRQAPGKGLEWVAVILYDGSNQYYADSVKGRFTISRDNSKNTLYLQMNSLRPADTAVYYCARASMMPRPPVHDYWGQGTLVTVSS
VL: DIRVTQSPATLSVSPGERATLSCRASQRVNSNLAWYQQKPGQAPRLLIYGASTRATGIPVRFSGSGSGTEFTLTISSLQSEDFAVYYCQQYNTWWTFGQGTKVEIK
notes: full-length IgG; also called Antibody Number 87
B16: ADI-45076 (antibody, V domains shown)
VH: EVQLVESGGGFVQPGGSLRLSCAASGFIFSDYYMDWVRQAPGKGLEWVGRIRNKPNSYTTEYAASVKGRFSISRDDLKNSLYLQMNSLKTEDTAEYYCARVDGEEVALIYWGQGALVTVSS
VL: DIQMTQSPSSLSASVGDRVTITCRASQTITRYMNWYQQKPGEAPKLLIYATSSLQSGVPSRFSGSGSGTDFTLTITNLQPADFATYYCQQSSTTRWTFGQGTKVDIK
notes: full-length IgG; also called Antibody Number 97
B17: ADI-42844 (antibody, V domains shown)
VH: QVQLVESGGGVVQPGRSLRLSCTASGFTFSSYGMHWVRQAPGKGPEWVAVISYDGSKKYFADSVKGRFTISRDNSKNTLYLQMNSLRAEDTAVYSCAKGYDSNGYYYIDYWGQGTPVTVSS
VL: DIRVTQSPSTLSASVGDRVTITCRASQSISSWLAWYQQKPGKAPKLLIYRASSLESGVPSRFSGSGSGTEFTLTISSLQPDDFATYYCQQYNRYPYTFGQGTKVEIK
notes: full-length IgG; also called Antibody Number 91
B18: ADI-48910 (antibody, V domains shown)
VH: EVQLVQSGGGLVQRGGSLRLSCAASGFTFSSYAMTWVRQAPGKGLEWVSDMNHSGDRTNYADSVRGRFTISRDNSKNTLYLQMNSLRAEDTAVYYCAKYYDSSGYYYFHSWGQGTLVTVSS
VL: B17 VL with V4L, T20S, S31D, S53G, S56T, E105D
notes: full-length IgG; also called Antibody Number 94
B19: ADI-49141 (antibody, V domains shown)
VH: EVQLQESGPGLVKPSGTLSLTCAVSGGSISSSNWWTWVRQPPGKGLEWIGEIYHSGSTNYNPSLESRVTMSVDKSKNQFSLKLSSVTAADTAVYYCARVQTSHSELWFGEFGADWGQGTLVTVSS
VL: DIVMTQSPATLSVSPGERATLSCRASQSVSSNLAWYQQKPGQAPRLLIYGASTRATGIPARFSGSGSGTEFTLTISSLQSEDFAVYSCQQYNTWPKTFGQGTKVEIK
notes: full-length IgG; also called Antibody Number 89
B20: ADI-42193 (antibody, V domains shown)
VH: EVQLLESGGGLVQPGGSLRLSCAASGFIFSDHYMAWVRQAPGKGLEWVGRSRNRPNSYTTEYAASAKGRFTISRDDSKTSLYLQMNSLKTEDTAVYYCAREHGDYGLDYWGQGTLVTVSS
VL: QPVLIQPPSASGTPGQRVTISCSGSSSNFGSNFVYWYQQLPGTAPKLLIYRVNQRPSGVPDRFSGSKSGTSASLAISGLRSEDEADYYCATWDVSLSNDVLFGGGTKLTVL
notes: full-length IgG; also called Antibody Number 95

Target: T2, recombinant YFV E protein (soluble E, sE; YFV Asibi strain) (Yellow fever virus, Asibi strain, UniProt Q6DV88 286-678)
T2 construct: also called YFV E antigen; YFV E monomer
Experiment: BLI monovalent (IgG on tip)

T2 sequence (Q6DV88 286-678): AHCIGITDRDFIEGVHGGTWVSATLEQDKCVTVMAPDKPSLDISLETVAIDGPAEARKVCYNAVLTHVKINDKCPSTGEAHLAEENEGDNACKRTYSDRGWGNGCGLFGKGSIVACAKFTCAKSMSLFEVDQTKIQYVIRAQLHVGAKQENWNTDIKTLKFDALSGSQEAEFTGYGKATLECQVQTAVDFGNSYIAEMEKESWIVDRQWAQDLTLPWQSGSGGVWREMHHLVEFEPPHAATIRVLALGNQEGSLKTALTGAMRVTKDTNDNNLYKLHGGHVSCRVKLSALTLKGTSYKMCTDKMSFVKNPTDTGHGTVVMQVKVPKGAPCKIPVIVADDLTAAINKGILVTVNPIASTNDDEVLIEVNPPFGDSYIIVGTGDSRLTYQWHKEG

Compared with B1, B2 is 2.3-fold higher in Kd: 109 nM for the first, 253 nM for the second. The first binds more tightly here.

Going from B3 to B4, the Kd rises from 0.963 nM to 3.45 nM (3.6-fold). The first binds more tightly here.

Going from B5 to B6, the Kd rises from 3.73 nM to 26.1 nM (7-fold).

B7 and B8 are within 1.5-fold of each other in Kd: 0.884 nM for the first, 1.04 nM for the second.

First: B9
Second: B10
The Kd of the first is lower: 15.2 nM for the first, > 100 nM for the second.

Going from B11 to B12, the Kd rises from 2.11 nM to > 100 nM.

B13 and B14 cannot be ordered by Kd: 204 nM for the first, > 100 nM for the second.

Going from B15 to B16, the Kd rises from 0.45 nM to 0.882 nM (2-fold).

First: B17
Second: B18
The Kd of the first is 57-fold higher: 137 nM for the first, 2.42 nM for the second. The second binds more tightly here.

First: B19
Second: B20
The Kd of the first is 200-fold higher: 187 nM for the first, 0.922 nM for the second. The second binds more tightly here.

Target: T1, recombinant YFV-17D DIII protein
Experiment: BLI, recombinant YFV-17D DIII protein

B2: binds.
B5: binds.
B6: binds.
B11: binds.
